Test: soluble on expression in E. coli; label from the status in PepcDB or PDB records

Sequence	soluble on expression in E. coli
MGHHHHHHSHMANSAGSMANSAGSMATLSDFFPEADPVLEKNYRRCVDLAINMSWSVPGQFKLVETPINSFLLVGDVLPNDMIESKPVNSTNLVNIPFPLSTLGVSTSKKSVEVTSYKSETEKFQEAASISEHSIRGSIVYEGLTWITAMGYNVTDFLVNMLEQMKCPENWSGLHPVDPLACVWLLYFGPKSRCSEIACVSELFIGKKGPILLPPHMYRGDTSVNSFAHHLCQYVKHLYADYEPEILSCPLDITRVKGCLSDLRQVAESCVFLSQRCLLCHLYKQNAAVSKNILTASDCIILGGSGKSLLGTYMKSYKDPATHDSILLPTYNLEAIVNYILEHYGHETAGQEINWE	not soluble
MTTRQIKIVPKLIAIFTGKAAVRAAWGGRGSGKTRSFALMAALKGYQFGMGGISGTILCARQFQNSLAESSLEEIKRAIEGHDFLKDYYKVGESSIKSIDGRIAFQFSGLDRNIASIKSMGRILLCWVDEAEPVTETAWQTLIPTLREEGEGWRAELWVTWNPLRDNAPVERRFRFSNNEAIKRVEINWSDNPKFPKILNEARLDDLKNRPETYKHIWEGAYLTAVQGAYYQKEMLAAEQEGRIGRVARDPLMQMRAFWDIGGTGAKADATAIWIAQFVGREIRVLDYYEAQGQPLSEHIGWLRRNGYEKALMVLPHDGATRDRVHNVSFESALNDAGFETQVIPHQGAGAVKMRIEAVRRILPSVWFHEETTVAGRKALNWYHEKWDEKRGIGLGAEHDWSSHGADAFGLMCIVYEAPRIKPQQERYRAIEREAASWMAF	not soluble
MSSSLQSNRQSLNRKVAVMGYPHVGKSALVLRFTQNIFPERYESTIEDQHSKHIAAFHRDYHLRVTDTAGQQEYTVFPRSCSLDINGFILVYAIDDRKSFEMCSNIYEKIVRTYGDTSIPIVIVGNKTDLSTQRVVRAEEGEELARQWDAKFVEITARESNRVHEVFELLLREIEISRGNLSPTERPNGNSPKRNPFKDDGKPCSIS	not soluble
MLTEQQRRELDWEKTDGLMPVIVQHAVSGEVLMLGYMNPEALDKTIESGKVTFFSRTKQRLWTKGETSGNFLNVVNIAPDCDNDTLLVLANPIGPTCHKGTSSCFGDTAHQWLFLYQLEQLLAERKSADPETSYTAKLYASGTKRIAQKVGEEGVETALAATVHDRFELTNEASDLMYHLLVLLQDQDLDLTTVIENLRKRHQ	not soluble
EEGLSGSKTFKIITKDYDIMNKEIKERLGRYCTFTKVTIDEENNSFVEISCVINKLEEQKLKEIINDVDPDAFIAIYDTAEVKAGNMKKSDIY	soluble
MAHHHHHHMKPVYRYAMNHEYNINSICPIAYSDQFATADDATVLLWCTEYPDTSIETHDMRSPYEDGPRETICAVRNFPHEPFLFFVATSGGSVRVVDTRQTLRWGDQAAQAFINPPREEDEPFSNVTNSICDCALSPSGRYIAGRDFMSICLWDIRMAGSGGARNAPATPRRQAPAARGGDGNPECSMVRRWALHPHLRDDLDTIYQSNLLFDKFDVQFLSSRQVCTGGFNNTLYTMDVEGTSADAASDIRTFQLLKTEGISEFRRTTVSAHRRGEDRISTGQGLGSRMTLMSRPYMSMSGACGMMVACGQAVLQLSYNGLSK	not soluble
MAQLYYRYGTMNSGKTIEILKVAYNYEEQGKGVVIMTSALDTRDGVGYVSSRIGMKRPALAIEETTDIFGYIRDLPEKPYCVLVDEAQFLKRHHVYDLARVVDELDIPVMAFGLKNDFRNELFEGSKYLLLLADKIDEIKTICQYCKKKATMVLRTQDGLPVYDGEQIQIGGNETYISVCRKHYFAPMITSNKEQNYDN	not soluble
MEKNLYDTNKLIELYKNKESMSGYTTILNVIEFPKALEFNLTVLYLSKSDYRLAIKISTELLKIGEPVPAVYTLISAIANKQRFKGCNAGQTFYAS	not soluble
MERKISRIHLVSEPSITHFLQVSWEKTLESGFVITLTDGHSAWTGTVSESEISQEADDMEMEKGKYVGELRKALLSGAGPADVYTFNFSKESCYFFFEKNLKDVSFRLGSFNLEKVENPAEVIRELICYCLDTTAENQAKNEHLQKENERLLRDWNDVQGRFEKCVSAKEALETDLYKRFILVLNEKKTKIRSLHNKLLNAAQ	soluble
MRSQRVFTTIDTHTGGNPTRTLISGLPKLIGETMAEKMLHMKKEYDWIRKLLMNEPRGHDVMSGALLTDPCHPEADIGVIYIETGGYLPMCGHDTIGVCTALVESGLIPVVEPITSLKLDTPAGLVEVDIAVQDGKAKEVSFCNIPAFLLKNITVQVKDIGTIEADIAYGGNFYAIIDAKSVGLELIPENASTIIDKAIHIRNTINEKFEIIHPEYSFIRGLTHVEFYTDATHECAHVKNTVIVPPGGIDRSPCGTGTSAKLAVLYAQKEIKIGEEFIHESIVGSLFKGYVVNTTHVENIEAVITKITGSAWLMGMHKFFYNEMDPLKEGFLLIPPMEHETEDIKMAGDPNSLEHHHHHH	soluble
MGSDKIHHHHHHMNKLNFKGSVMLNPTPVVLVTSKDKSQNLNVFTVGWVSTVCTKDPIIAMGIRPERLSYQYIKESCECVINLPTTSMVKIVDYCGVVSGRRVDKIKHFSLPLNDGVSISTPSLENCPVALECKVKSVTPLGTHDLFLLQVLNVKIDETLLDKNNKICFNKANLMCYNHGEYYGLNSKPIGSFGFSVKKKTKKIHRRKKGD	not soluble
MSIFDHYQSRYEAAKDEEMSLQEFLALCKDDKSAYANAAERLLMAIGEPEIIDTAKDPRLSRIFSNRVISRYETFKDFYGMEDAIEQIVSYLKHAAQGLEERKQILYLLGPVGGGKSSLAEKLKSLMEAMPIYVLSANGERSPVNDHPFCLFKATEDGEILKTDYGIEQRYLRSIMSPWAAKRLHEFGGDITKFKVMKVRPSILDQIGIAKTEPGDENNQDISSLVGKVDIRKLEHYSQDDPDAYSYSGALCKANQGLMEFVEMFKAPIKVLHPLLTATQEGNFNGTEGLSAIPFDGMILAHSNESEWQTFRNNKNNEAFLDRVYIVKVPYCLRVSEEVKIYQKLLENSELSQAPCSPSTLETLAQFSILSRLKEPENSS	not soluble
MGILDHPSSSSGIQSGGGTFGIDWAKWFPPVTSRSFLSHYLPASGALSHTLYTVHLFSPNIISSLFPTGDLAVSNTILFNANVGLGFYVYFRRHLHRVNPWERVEFSVLSSTLFNFGSLLAAVLIKALIPAKSPTWLKSLTATVLSGYLLSRAAKYMGILDHRSSRGSVSPARSVLSRRQTASRSSHAAEVTPPPASYAPETPRSVASTSYYSPSELHLDTTSSVQLETPPQSHESGSFMPMTPSATEHSSSEFGQDLEDAGDRHENYRYLHSYALNNLNHSRPKKETILRRTTMNQKNQLATPQKQLRRSSETMAPMCFVTPEPSWKELDVGVYTPPPSRMDFTPQASKKLTKSSKSVKIIQKKSRRIPNEKDDFDRFLDAVQWHAPLILVPVAFGCWITGSVPILSPTLRFIFA	not soluble
GPGSMFLSLANKLVVSRQRGSSCERMAQPKERASISSEELVVWKAAERVRKGASLPLSRVARCIASATKLLKVETKVVERVCGDTIVFGPIRGHAADFANILLTKVLPNRCVRNIVFLGNYIDGAHQSLGVLFLIAALIVCSRFHIVPLIGKHEMMYPILSETFGSLRNEMLLCCTRRRQPLEQYESIMKEFFSVLPIACVVENKFFCVAGGPSSKFRTLKEIELITMTQEASNEFVLNEPMDEDEERIADRSAFVASQGTELAFRYTFNAACNFLSRNKLAMLIVGMEYHMSLPDYDSFARPNHYKESIYFPGYMLGRIHPESQLPAVLSIFSAPSFCGVNRNNACIAEIAGNRLVVQELGVYAKRPLVTPGTQDHAFSWAQPMLERAVVAIARDIIRGVIKEDAATDDDAHRKRLEEVAVSKMRRMCMLLRTHNIPFPDVPKLTFR	not soluble
MSLSDNVDVDVLSLVQNDALEESVAINSMISKARANFSGSLLQFQTRVSSVYGETNEENAVNPLDPEHICKAFSDACIGLDIEIKEKLIVYKQFDRYVMGNLVECLEEANKIMIQAGVMPNLKYTAKKSRVTPRSTSDVSARPLEAQSDANGYDGAGDVFSQVQELLSALRNTASNPEQQQGDPNTGAGGRQAPPPGNVQFIADADLLSILSRLQHSVRTENLAEGPVVALDLRTAVQGLLSEESQKSGKATALDQIDEDLINLVSMLFEFILDDYNLSAPIQVLISRLQIPILKVAIRDKSFFSKPSHPARKLLNALAKAGIGWSDASEKKRDKLYEQIHRAVQRILEEFNGESELFEEIYQEFSQYLSREERKAKLVEQRTKEAEIGRVKSHKAHQVVEQILSEKIAAQPLPPVAVELLRGGWSRVMFLAYLKEDTEHRLNQCTKVVDELTWCLQPHAEVEARQRWVKVVPQLLKNLKAGLKEVSYNSAKLEHMLGELKKALTETFKQQSITSEGHHHHHH	not soluble
MGSDKIHHHHHHMDVIFSIFLETFGDPIGQQPVPPAAVDHYQGKLPNRLLEYWQDHGWCGYGGGLFWLVNPQEYQGVVASWLAGTHFEACDTYHLIARSAFGDLYLWGEKTGSVLTIAAYHSRYLDGAHSSGDEERDNKIHGLLMWLMTECVYFDDLFEPARERLGTLGSDEMYGFVPALMLGGPDSLERLEKLKAVEHLVLLSQLSELEPYELTGEEDE	not soluble
MSLKNITIGMVGVGRIGRMHVANMLAVAETLKERDLNIEIVLADAMPGFAEQVGADMGVKAAASVDKLIEDGVDALFIATSTAGHVDVLRKGIAAKLPMFCEKPIASDVPESLNIIREIDAAGATVQVGHQRRFDLGYQEAKRRLDAGDLGWLHSLKAVSSDAFPPPVSYCATSGGLFRDVSLHDFDIIRWLTGQDIVEVYAKGSNNGDPEIGAVGDIDTGAALLTLADGTLATAIATRYNGAGHDVRLDVMGSKDSTIVGLDEKSAFASAEEGIDFPTGESHPTFAERFADAYKNECIAFVELILGERENPCTPADAVAAAIVADAAQLSLVTGEPVKIPTVREILEGSAQPVEVRALVPSEGHHHHHH	soluble
MASMTGGQQMGRGSPNMLRKRQMTVLDLHPGSGKTRKILPQIIKDAIQQRLRTAVLAPTRVVAAEMAEALRGLPVRYQTSAVQREHQGNEIVDVMCHATLTHRLMSPNRVPNYNLFVMDEAHFTDPASIAARGYIATKVELGEAAAIFMTATPPGTTDPFPDSNAPIHDLQDEIPDRAWSSGYEWITEYAGKTVWFVASVKMGNEIAMCLQRAGKKVIQLNRKSYDTEYPKCKNGDWDFVITTDISEMGANFGASRVIDCRKSVKPTILEEGEGRVILGNPSPITSASAAQRRGRVGRNPNQVGDEYHYGGATSEDDSNLAHWTEAKIMLDNIHMPNGLVAQLYGPEREKAFTMDGEYRLRGEEKKNFLELLRTADLPVWLAYKVASNGIQYTDRKWCFDGPRTNAILEDNIEVEIVTRMGERKILKPRWLDARVYADHQALKWFKDFAAGKRHHHHHH	soluble
MSRLGYVMTKASAKNFKVYINGSARGYRNIIINGAKSWNPSPYLNTVTMGNDVKPNFTVSSSNTNKGSVLAVCNTTYYKSNKLIVKNEITLYKGFRSLSNNHKIETVAHEFGHGFGLGHVKTRNAIMLDKGFINKTKPQKDDFNGIKALYKLEHHHHHH	soluble
MGHHHHHHSHQQENGSMFSLITWNIDGLDLNNLSERARGVCSYLALYSPDVIFLQEVIPPYYSYLKKRSSNYEIITGHEEGYFTAIMLKKSRVKLKSQEIIPFPSTKMMRNLLCVHVNVSGNELCLMTSHLESTRGHAAERMNQLKMVLKKMQEAPESATVIFAGDTNLRDREVTRCGGLPNNIVDVWEFLGKPKHCQYTWDTQMNSNLGITAACKLRFDRIFFRAAAEEGHIIPRSLDLLGLEKLDCGRFPSDHWGLLCNLDIIL	not soluble
